Assay [1] deals with T1, mouse factor H (mouse, UniProt P06909 19-1234). Kind of assay: SPR. Background: SPR reads the build-up and loss of mass on a sensor chip optically.
The target of assay [2] is T1, mouse factor H. Description: ELISA. Background: In an ELISA, binding on a coated surface is turned into a signal by an enzyme label.
Another assay deals with human factor H (human, UniProt P08603 19-1231). Description: ELISA.
human factor H, sequence (P08603 19-1231): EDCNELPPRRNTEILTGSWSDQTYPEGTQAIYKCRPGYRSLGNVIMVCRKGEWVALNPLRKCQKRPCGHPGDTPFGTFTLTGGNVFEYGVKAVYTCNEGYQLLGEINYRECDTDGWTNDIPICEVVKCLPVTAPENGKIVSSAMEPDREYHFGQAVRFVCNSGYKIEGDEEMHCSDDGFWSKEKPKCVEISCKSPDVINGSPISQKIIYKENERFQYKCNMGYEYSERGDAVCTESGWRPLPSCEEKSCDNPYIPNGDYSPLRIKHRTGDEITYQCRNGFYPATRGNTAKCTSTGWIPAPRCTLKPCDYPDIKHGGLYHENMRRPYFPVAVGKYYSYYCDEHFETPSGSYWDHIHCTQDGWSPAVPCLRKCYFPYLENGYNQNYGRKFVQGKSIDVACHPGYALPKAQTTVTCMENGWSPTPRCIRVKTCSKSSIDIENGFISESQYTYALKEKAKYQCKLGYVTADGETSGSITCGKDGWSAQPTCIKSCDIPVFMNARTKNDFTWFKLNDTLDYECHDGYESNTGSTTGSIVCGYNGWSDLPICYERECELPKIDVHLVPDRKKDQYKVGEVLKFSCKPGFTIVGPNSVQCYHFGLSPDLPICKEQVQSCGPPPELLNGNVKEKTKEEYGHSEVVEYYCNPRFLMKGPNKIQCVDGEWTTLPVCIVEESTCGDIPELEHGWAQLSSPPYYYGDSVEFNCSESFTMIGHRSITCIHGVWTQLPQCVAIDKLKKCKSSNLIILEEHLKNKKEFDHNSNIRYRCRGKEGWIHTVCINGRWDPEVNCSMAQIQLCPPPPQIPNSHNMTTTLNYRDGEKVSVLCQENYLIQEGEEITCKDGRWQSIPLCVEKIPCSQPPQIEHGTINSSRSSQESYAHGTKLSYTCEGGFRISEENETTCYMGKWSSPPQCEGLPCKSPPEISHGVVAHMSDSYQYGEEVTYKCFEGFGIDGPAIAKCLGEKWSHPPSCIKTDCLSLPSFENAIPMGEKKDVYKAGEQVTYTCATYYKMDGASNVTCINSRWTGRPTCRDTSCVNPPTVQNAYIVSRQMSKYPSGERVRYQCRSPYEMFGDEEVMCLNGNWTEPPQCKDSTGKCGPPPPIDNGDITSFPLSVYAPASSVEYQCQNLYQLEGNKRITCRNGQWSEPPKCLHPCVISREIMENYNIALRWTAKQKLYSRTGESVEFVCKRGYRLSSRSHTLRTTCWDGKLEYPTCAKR

T1 sequence (P06909 19-1234): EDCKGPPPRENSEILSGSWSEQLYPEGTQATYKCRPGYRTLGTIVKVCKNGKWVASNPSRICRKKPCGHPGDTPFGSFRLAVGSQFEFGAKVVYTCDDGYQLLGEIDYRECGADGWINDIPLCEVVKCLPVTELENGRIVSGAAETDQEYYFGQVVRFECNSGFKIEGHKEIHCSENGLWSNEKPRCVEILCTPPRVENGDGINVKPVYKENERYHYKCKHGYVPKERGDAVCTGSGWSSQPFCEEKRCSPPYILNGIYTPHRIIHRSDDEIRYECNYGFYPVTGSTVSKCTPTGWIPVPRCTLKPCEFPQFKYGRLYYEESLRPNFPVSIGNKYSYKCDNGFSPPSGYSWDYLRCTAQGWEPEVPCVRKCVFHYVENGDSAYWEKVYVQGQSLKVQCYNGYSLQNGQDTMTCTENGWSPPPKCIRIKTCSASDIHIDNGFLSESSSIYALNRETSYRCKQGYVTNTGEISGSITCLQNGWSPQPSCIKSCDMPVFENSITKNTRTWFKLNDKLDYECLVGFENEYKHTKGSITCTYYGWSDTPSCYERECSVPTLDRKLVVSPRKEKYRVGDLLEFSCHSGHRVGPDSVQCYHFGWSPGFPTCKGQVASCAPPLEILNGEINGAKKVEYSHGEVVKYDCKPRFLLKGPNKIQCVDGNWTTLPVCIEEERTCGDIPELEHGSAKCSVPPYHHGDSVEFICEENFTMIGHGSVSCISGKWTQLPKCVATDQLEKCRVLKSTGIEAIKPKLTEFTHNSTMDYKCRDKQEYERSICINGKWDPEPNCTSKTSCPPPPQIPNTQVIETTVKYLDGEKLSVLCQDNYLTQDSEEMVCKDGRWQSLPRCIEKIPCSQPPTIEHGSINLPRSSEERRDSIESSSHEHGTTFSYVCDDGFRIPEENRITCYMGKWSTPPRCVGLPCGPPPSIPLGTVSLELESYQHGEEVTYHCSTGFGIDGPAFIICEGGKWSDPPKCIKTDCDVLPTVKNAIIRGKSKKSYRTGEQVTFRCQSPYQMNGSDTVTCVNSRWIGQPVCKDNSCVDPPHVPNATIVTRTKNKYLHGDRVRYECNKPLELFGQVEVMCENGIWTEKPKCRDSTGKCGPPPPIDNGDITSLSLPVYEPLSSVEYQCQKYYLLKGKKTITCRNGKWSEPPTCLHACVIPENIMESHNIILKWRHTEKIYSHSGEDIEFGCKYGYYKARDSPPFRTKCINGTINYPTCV

B1: CspZ from B. burgdorferi B31 (CspZB31), untagged recombinant protein (natural protein, Borrelia burgdorferi strain B31)
chain: RLNQRNINELKIFVEKAKYYSIKLDAIYNECTGAYNDIMTYSEGTFSDQSKVNQAISIFKKDNKIVNKFKELEKIIEEYKPMFLSKLIDDFAIELDQAVDNDVSNARHVADSYKKLRKSVVLAYIESFDVISSKFVDSKFVEASKKFVNKAKEFVEENDLIALECIVKTIGDMVNDREINSRSRYNNFYKKEADFLGAAVELEGAYKAIKQTLL
As for B1, in the assay with mouse factor H [1], the binding result was “binds”.

B2: histidine-tagged CspZB31 (natural protein, Borrelia burgdorferi strain B31)
chain: B1 chain
Consider B2, for which the binding result with mouse factor H [2] and in the assay with human factor H was “binds” in each case.
